Assay results taken from paper PMC6335422 (Nature Communications, 2019).
Primed or numbered codes have the meaning given here. Where no end group is shown, it is not given here. SUMO″ = SUMO fusion tag (N-terminal); SUMO = SUMO tag, N-terminal

T1: Erh1 (Erh1wt) (Schizosaccharomyces pombe, UniProt G2TRN4)
T1 construct: A region of Erh1 (residues 1–104) was amplified by PCR; made in house; host or cells: Escherichia coli BL21 (Gold)
T1 sequence (G2TRN4 1-104): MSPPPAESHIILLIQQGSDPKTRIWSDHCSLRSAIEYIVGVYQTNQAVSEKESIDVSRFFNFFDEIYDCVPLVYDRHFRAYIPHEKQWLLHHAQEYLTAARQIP

T2: Erh1 (residues 1-104), wild type (S. pombe, UniProt G2TRN4 1-104)
T2 construct: Erh1, S. pombe, residues 1-104, amplified from the S. pombe genome, in a modified pET28a vector without thrombin site (p28a); also called Erh1wt; Enhancer of rudimentary homolog 1; source: E. coli BL21 (Gold), purified (Ni-chelating resin, size-exclusion chromatography)
T2 sequence (looked up): T1 sequence (G2TRN4 1-104)

B1: SUMO-tagged Mmi1 106-122 (domain or fragment, S. pombe, UniProt O74958 106-122, looked up)
chain: YGHSYEWPYFRSLRRES
notes: source: E. coli BL21 (Gold), purified (Ni-chelating resin, size-exclusion chromatography); not shown: SUMO, N-terminal, kept
B2: SUMO-tagged Mmi1 95-122 Y97A (domain or fragment, S. pombe, UniProt O74958 95-122, looked up)
chain: GKADFSRHCTDYGHSYEWPYFRSLRRES
notes: also called Mmi1 Y97A; source: E. coli BL21 (Gold), purified (Ni-chelating resin, size-exclusion chromatography); not shown: SUMO, N-terminal, kept
B3: SUMO-tagged Mmi1 95-122 Y106A (domain or fragment, S. pombe, UniProt O74958 95-122, looked up)
chain: GKYDFSRHCTDAGHSYEWPYFRSLRRES
notes: also called Mmi1 Y106A; source: E. coli BL21 (Gold), purified (Ni-chelating resin, size-exclusion chromatography); not shown: SUMO, N-terminal, kept
B4: SUMO-tagged Mmi1 95-122 Y110A (domain or fragment, S. pombe, UniProt O74958 95-122, looked up)
chain: GKYDFSRHCTDYGHSAEWPYFRSLRRES
notes: also called Mmi1 Y110A; source: E. coli BL21 (Gold), purified (Ni-chelating resin, size-exclusion chromatography); not shown: SUMO, N-terminal, kept
B5: SUMO-tagged Mmi1 95-122 S100A (domain or fragment, S. pombe, UniProt O74958 95-122, looked up)
chain: GKYDFARHCTDYGHSYEWPYFRSLRRES
notes: also called Mmi1 S100A; source: E. coli BL21 (Gold), purified (Ni-chelating resin, size-exclusion chromatography); not shown: SUMO, N-terminal, kept
B6: SUMO-tagged Mmi1 95-122 F115A (domain or fragment, S. pombe, UniProt O74958 95-122, looked up)
chain: GKYDFSRHCTDYGHSYEWPYARSLRRES
notes: also called Mmi1 F115A; source: E. coli BL21 (Gold), purified (Ni-chelating resin, size-exclusion chromatography); not shown: SUMO, N-terminal, kept
B7: SUMO-tagged Mmi1 95-122 F99A (domain or fragment, S. pombe, UniProt O74958 95-122, looked up)
chain: GKYDASRHCTDYGHSYEWPYFRSLRRES
notes: also called Mmi1 F99A; source: E. coli BL21 (Gold), purified (Ni-chelating resin, size-exclusion chromatography); not shown: SUMO, N-terminal, kept
B8: SUMO-tagged Mmi1 95-122 H108A (domain or fragment, S. pombe, UniProt O74958 95-122, looked up)
chain: GKYDFSRHCTDYGASYEWPYFRSLRRES
notes: also called Mmi1 H108A; source: E. coli BL21 (Gold), purified (Ni-chelating resin, size-exclusion chromatography); not shown: SUMO, N-terminal, kept
B9: SUMO-tagged Mmi1 95-122 R119A (domain or fragment, S. pombe, UniProt O74958 95-122, looked up)
chain: GKYDFSRHCTDYGHSYEWPYFRSLARES
notes: also called Mmi1 R119A; source: E. coli BL21 (Gold), purified (Ni-chelating resin, size-exclusion chromatography); not shown: SUMO, N-terminal, kept
B10: SUMO-tagged Mmi1 95-122 T104A (domain or fragment, S. pombe, UniProt O74958 95-122, looked up)
chain: GKYDFSRHCADYGHSYEWPYFRSLRRES
notes: also called Mmi1 T104A; source: E. coli BL21 (Gold), purified (Ni-chelating resin, size-exclusion chromatography); not shown: SUMO, N-terminal, kept
B11: SUMO-tagged Mmi1 95-122 Y114A (domain or fragment, S. pombe, UniProt O74958 95-122, looked up)
chain: GKYDFSRHCTDYGHSYEWPAFRSLRRES
notes: also called Mmi1 Y114A; source: E. coli BL21 (Gold), purified (Ni-chelating resin, size-exclusion chromatography); not shown: SUMO, N-terminal, kept
B12: GST-tagged Mmi1^1–122: purified GST-tagged Mmi1 amino-terminal fragment, residues 1–122 (protein, UniProt O74958 1-122, looked up, fragment)
chain: MSNTNFSTSRSSKSIPELPNLEALRSLWPPPSLNESGDTRSVWTTHTGEPVASSVLSTSGSNNFSSPLKRPAPESHDAPIGRRLMVDDPRLIKHGKYDFSRHCTDYGHSYEWPYFRSLRRES
modifications: GST tag

How the values were obtained:
Erh1 (Erh1wt) = biological target: T1, Erh1 (Erh1wt); assay: Isothermal titration calorimetry (ITC), SUMO-tagged Mmi1 peptides titrated into wild-type Erh1; format: binding, S. pombe; conditions: for binding / affinity for Erh1 (in words): ITC (Supplementary Table 1; Fig. 1d, f), relative to Mmi1^95–122; for -TΔS / ΔH (binding enthalpy): Erh1wt; for ΔH (binding enthalpy): single-site model
Procedure: The titration protocol consisted of a single initial injection of 1 µl, followed by 19 injections of 2 µl SUMO-tagged Mmi1 peptides into the sample cell containing Erh1 protein. Thermodynamic data were analyzed with a single-site binding model using MicroCal PEAQ-ITC Analysis Software provided by the manufacturer.

[1] = biological target: T2, Erh1 (residues 1-104), wild type; assay: ITC; SUMO-tagged Mmi1 peptides titrated into Erh1 in the sample cell; MicroCal iTC200, 293 K; 20 mM Tris-HCl pH 7.5, 150 mM NaCl; single-site binding model; conditions: both partners purified
Erh1 = assay: GST pull-down of Erh1 with GST-tagged Mmi1 fragments, Coomassie; format: binding, S. pombe; conditions: GST-Mmi1 fusion incubated with Erh1, glutathione-agarose, SDS-PAGE
Text: Fig. 1 Mmi1 interacts with Erh1 in a 2:2 stoichiometry. a Shown is a schematic representation of the domain architecture of Mmi1. The disorder score from DISOPRED3 Server[62] and the conservation score are shown below. The conservation score is generated by a Protein Residue Conservation Prediction Server[63] from the sequence alignment of Mmi1 orthologues from S. pombe, S. cryophilus, S. octosporus, and S. japonicus. b–d Interactions of GST tagged Mmi1 peptides (GST-Mmi1) with Erh1 visualized by Coomassie blue staining. The indicated GST-Mmi1 fusion proteins or GST alone were incubated with Erh1. The complexes were collected with glutathione-agarose resin and bound proteins were eluted and then subjected to SDS-PAGE. GST or GST-Mmi1 fusion proteins without Erh1 are shown as a negative control. Source data are provided as a Source Data file. e The raw ITC titration data of Erh1 with SUMO tagged Mmi1^95–122 and its fitting curve are shown. KD dissociation constant, DP differential power, N binding stoichiometry, ΔH binding enthalpy. f ITC fitting curves of Erh1 using SUMO tagged Mmi1^95–122 (magenta), Mmi1^106–122 (blue) and Mmi1^95–111 (green) are shown. g Size-exclusion analysis of Erh1 (magenta) and Erh1-Mmi1^95–122 (blue). Marker sizes are 62.9 KDa (Albumin), 46.7 KDa (Ovalbumin), 20.3 KDa (Chymotrypsinogen), 14.6 KDa (Ribonuclease A). Also shown are theoretical monomer sizes (kDa) of Erh1 protein and Mmi1^95–122 peptide TEXT PRINTED IN THE PICTURE: (e) Mmi1^95–122 - Erh1: KD (μM) 0.83±0.19; N (sites) 0.90±0.01; ΔH (kJ per mol) −106±3.02 | (f) Mmi1^95–122: Erh1 KD (μM): 0.83±0.19 | (f) Mmi1^106–122: Erh1 KD (μM): 9.94±1.19 | (f) Mmi1^95–111: Erh1 KD (μM): no binding | (g) Erh1: 13.2 kDa | (g) Mmi1^95–122: 3.5 kDa
A region of Erh1 (residues 1–104) was amplified by PCR from the S. pombe genome and cloned into a modified pET28a (Novagen) vector without a thrombin protease cleavage site (p28a). GST-Mmi1^YTH was sub-cloned from a Mmi1^YTH-p28a construct to a modified PGex-4T1 vector with a TEV protease cleavage site (Tev4T1). […]

[2] = ITC, 293 K, 20 mM Tris-HCl pH 7.5, 150 mM NaCl, SUMO-tagged Mmi1 peptide

Molecule | -TΔS (Erh1 (Erh1wt); [2]) | ΔH (binding enthalpy) (Erh1 (Erh1wt); [2]) | Kd [1] | stoichiometry N [1] | also measured
Mmi1^95–111: truncated Mmi1 peptide, residues 95–111 ({SUMO″}-GKYDFSRHCTDYGHSYE; not fully specified) |  |  |  |  | binding / affinity for Erh1 (in words) (Erh1 (Erh1wt)): did not bind at all; KD (dissociation constant) (Erh1 (Erh1wt); text and figures 1e, 1f, 3e, Erh1, ITC, 293 K, 20 mM Tris-HCl pH 7.5, 150 mM NaCl, SUMO-tagged Mmi1 peptide): no binding
Mmi1F115A: Mmi1 peptide mutant F115A ({SUMO}-GKYDFSRHCTDYGHSYEWPYARSLRRES; not fully specified) | 35.7 kJ per mol | -68.0±0.673 kJ per mol |  |  | binding / affinity for Erh1 (in words) (Erh1 (Erh1wt)): reduced affinities for Erh1
Mmi1T104A: Mmi1 peptide mutant T104A ({SUMO}-GKYDFSRHCADYGHSYEWPYFRSLRRES; not fully specified) | 22.8 kJ per mol | -53.7±1.31 kJ per mol |  |  | 
Mmi1F99A: Mmi1 peptide mutant F99A ({SUMO}-GKYDASRHCTDYGHSYEWPYFRSLRRES; not fully specified) | 8.86 kJ per mol | -42.6±1.83 kJ per mol |  |  | binding / affinity for Erh1 (in words) (Erh1 (Erh1wt)): reduced affinities for Erh1
Mmi1Y106A: Mmi1 peptide mutant Y106A ({SUMO}-GKYDFSRHCTDAGHSYEWPYFRSLRRES; not fully specified) | 11.3 kJ per mol | -43.8±2.35 kJ per mol |  |  | 
Mmi1H108A: Mmi1 peptide mutant H108A ({SUMO}-GKYDFSRHCTDYGASYEWPYFRSLRRES; not fully specified) | -21.2 kJ per mol | -9.97±2.43 kJ per mol |  |  | 
Mmi1Y110A: Mmi1 peptide mutant Y110A ({SUMO}-GKYDFSRHCTDYGHSAEWPYFRSLRRES; not fully specified) | 246 kJ per mol | -273±20.3 kJ per mol |  |  | 
Mmi1S100A: Mmi1 peptide mutant S100A ({SUMO}-GKYDFARHCTDYGHSYEWPYFRSLRRES; not fully specified) | 6.04 kJ per mol | -36.0±3.16 kJ per mol |  |  | 
Mmi1^106–122: further truncated Mmi1 fragment, residues 106–122 ({SUMO″}-YGHSYEWPYFRSLRRES; not fully specified) | 45.5 kJ per mol | -73.6±2.69 kJ per mol |  |  | binding / affinity for Erh1 (in words) (Erh1 (Erh1wt)): decreased binding to Erh1
Mmi1R119A: Mmi1 peptide mutant R119A ({SUMO}-GKYDFSRHCTDYGHSYEWPYFRSLARES; not fully specified) | 13.1 kJ per mol | -46.3±1.28 kJ per mol |  |  | binding / affinity for Erh1 (in words) (Erh1 (Erh1wt)): reduced
Mmi1Y97A: Mmi1 peptide mutant Y97A ({SUMO}-GKADFSRHCTDYGHSYEWPYFRSLRRES; not fully specified) | 13.8 kJ per mol | -46.1±1.20 kJ per mol |  |  | binding / affinity for Erh1 (in words) (Erh1 (Erh1wt)): reduced affinities for Erh1
Mmi1Y114A: Mmi1 peptide mutant Y114A ({SUMO}-GKYDFSRHCTDYGHSYEWPAFRSLRRES; not fully specified) | 31.1 kJ per mol | -61.8±1.07 kJ per mol |  |  | binding / affinity for Erh1 (in words) (Erh1 (Erh1wt)): reduced affinities for Erh1
B1 |  |  | 9940 ± 1190 nM | 0.89 | 
B2 |  |  | 1750 ± 317 nM | 1.27 | 
B3 |  |  | 1630 ± 473 nM | 1.36 | 
B4 |  |  | 15000 ± 2710 nM | 1 | 
B5 |  |  | 4730 ± 1620 nM | 1.36 | 
B6 |  |  | 1800 ± 121 nM | 0.9 | 
B7 |  |  | 996 ± 355 nM | 1.38 | 
B8 |  |  | 2780 ± 2150 nM | 1.36 | 
B9 |  |  | 1220 ± 270 nM | 1.12 | 
B10 |  |  | 3270 ± 425 nM | 1.45 | 
B11 |  |  | 3520 ± 323 nM | 0.97 | 
B12 |  |  |  |  | interaction with Erh1 (GST pull-down) (Erh1): bound efficiently to Erh1
